Data taken from article PMC9506717.

Settings: glycan lost

Row | Substance | other: Spike incorporation into virions | expression_or_secretion | other: viral entry
1 | Spike: N61/603/657 triple mutant | decreases | – | –
2 | Spike: N61/603/657Q | decreases | no change | –
3 | Spike: N61/657Q | decreases | no change | –
4 | Spike: N61Q | decreases | no change | –
5 | Spike: N61Q/N657Q | decreases | – | –
6 | Spike: N603/657Q | – | no change | –
7 | Spike: N603Q | – | no change | –
8 | Spike: N616Q | – | no change | decreases
9 | Spike: N657Q | – | no change | –
10 | Spike: N801Q | decreases | no change | –
